Data from patent US20100303858A1.

Key:
[1] = target: gp120/sCD4 complex (HIV-1 YU2) (UniProt P35961); experiment: ELISA, gp120/sCD4 captured by D7324, bound antibody as OD 490 nm
[2] = target: wild type gp120YU2 (HIV-1 YU2) (UniProt P35961); experiment: ELISA, gp120 captured by D7324, bound antibody as OD 490 nm
[3] = target: gp120/sCD4 complex (HIV-1 YU2) (UniProt P35961); experiment: SPR (BIACORE 2000), antibody immobilized on CM4 chip, gp120/sCD4 as analyte, 1:1 Langmuir fit
[4] = target: gp120ΔV1/V2sdCD4 chimeric protein (HIV-1 YU2) (UniProt P35961); experiment: SPR (BIACORE 2000), antibody immobilized on CM4 chip, chimeric protein as analyte, 1:1 Langmuir fit
[5] = target: gp120ΔV2sdCD4 chimeric protein (HIV-1 YU2) (UniProt P35961); experiment: as above
[6] = target: gp120/sCD4 complex (HIV-1 YU2) (UniProt P35961); experiment: SPR, antibody immobilized; KD of gp120/sCD4 against KD of gp120ΔV1/V2sdCD4 and gp120ΔV2sdCD4

Substance	EC50 (read off the curve) [1] [mg/L]	EC50 (read off the curve) [2] [mg/L]	Kd [3] [nM]	koff [3] [s⁻¹]	kon [3] [M⁻¹ s⁻¹]	Kd [4] [nM]	koff [4] [s⁻¹]	kon [4] [M⁻¹ s⁻¹]	Kd [5] [nM]	koff [5] [s⁻¹]	kon [5] [M⁻¹ s⁻¹]	fold KD against the chimeric proteins [6] [fold]
human MAb F105 (antibody)	0.3	0.1										
human CD4i monoclonal antibody E51			0.21	0.000169	796000	0.012	0.000516	4.27e+07	0.013	0.000398	3.08e+07	
human CD4i monoclonal antibody 4.8D			1.2	0.000212	177000	0.015	0.000149	9.45e+06	0.038	0.000197	5.2e+06	100
